Measured values published in the RNAGym collection of RNA variant scans (doi:10.1073/pnas.2313332121).

B1: TPR t1 (parent)
chain: GACCAAUCUGCCCUCAGAGCUCGAGAACAUCUUCGGAUGCAGAGGAGGCAGGCUUCGGUGGCGCGAUAGCGCCAACGUCCUCAACCUCCAAUGCAUCCCACCACAUGAUGAUGCCUGAAGAGCCUUGGUUUUUUG

Variants of: B1
Assay: polymerase ribozyme fitness, log enrichment relative to wild type (log ratio); higher = more active; in vitro selection for triplet polymerase activity
Outline: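 Mutant libraries of each subunit of a heterodimeric triplet polymerase ribozyme were built by PCR and transcribed. Each library went through one round of in vitro selection in triplicate: annealing with biotinylated primer, partner subunit and triplets, frozen incubation at −7 °C, gel excision of extended constructs, streptavidin-bead capture and RT-PCR. Input and output libraries were Illumina-sequenced; only genotypes with ≥10 input reads and ≥1 read per output were kept. Fitness is log2(genotype enrichment/wild-type enrichment), using inverse-variance-weighted replicate averages.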

With GACCAAUCUGCCCUCAGUGCUCGAGAACAUCUUCGGAUGCAGAGGAGGCAGGCUUCGGUGGCGCGAUAGCGCCAACGUCCUCAACCUCCAAUGCAUCCCACCACAUGAUGAUGCCUGAAGAGCCUUGGUUUUGUG [A18U U133G] as the variant, how does the “polymerase ribozyme fitness (log ratio)” value read?
Its value is -1.41.

With GACCAAUCUGCCCUCAGAGCUCGAGAACAUCUUCGGAUGCAGAGGAGGCAGGCUUCGGUGGCGCGAUAGCGCCAACGUCCUCAACCUCCAAUGCAUCCCAGCACAUGAUGAUGCCUAAAGAGCCUUGGUUUUUUG [C101G G117A] as the variant, how does the “polymerase ribozyme fitness (log ratio)” value read?
The value was -3.52.

For GACCAAUCUGCCCUCAGAGCUCGAGAACAUCUUCGGAUGCAGAGGAGACAGGCGUCGGUGGCGCGAUAGCGCCAACGUCCUCAACCUCCAAUGCAUCCCACCACAUGAUCAUGCCUGAAGAGCCUUGGUUUUUUG [G48A U54G G110C], which “polymerase ribozyme fitness (log ratio)” value is on record?
Its value is -4.76.

Which “polymerase ribozyme fitness (log ratio)” value does the source give for GACCAAUCUGCCGUCAGAGCUCGAGAACAUCUUCGGGUGCAGAGGAGGCAGGCUUCGGUGGCGCGAUAGCGCCAACGUCCUCAACCUCCAAUGCAUCCCACCACAUGAUGAUGCCUGAAGAGCCUUGGUUUUUUG [C13G A37G] here?
Its value is -2.1.

Which “polymerase ribozyme fitness (log ratio)” value does the source give for GUCCAAUCUGCCCUCAGAGCUCGAGAACAUCUUCGGAUGCAGAGGAGGCAGGCUUCGGUAGCGCGAUAGCGCCAACGUUAUCAACCUCCAAUGCAUCCCACCACAUGAUGAUGCCUGAAGGGCCUUGGUUUUUUG [A2U G60A C79U C80A A121G] here?
Its value is -5.43.

For GACCAAUCUGCCCUCAGAGCUCGAGAACAUCUUCGGAUGCAGAGGAGGUAGGCAUCGGUGGCGCGAUAGCGCCAACGUCCUCAACCUCCAACGCAUCCCACCACAUGAUGAUGCCUGAACAGCCUUGAUUUUUUG [C49U U54A U92C G120C G128A], which “polymerase ribozyme fitness (log ratio)” value is on record?
The value was -4.05.

With GACCAGUCUGACCUCAGAGCUCGAGAACAUCUUCGGAUGCAGAGGAGGCAGGCUUCGGUGGCGCGAUAGCGCCAACGUCCUCAACCUCCAAUGCAUCCCACCACAUGAGGAUGCCUGACGAGGCCUGGUUUUUUG [A6G C11A U109G A119C C123G U125C] as the variant, how does the “polymerase ribozyme fitness (log ratio)” value read?
The value was -5.22.

With GACCAAUCUGCCCUCAGAGCUCGAGAACAUCUUCGGAUGCAGAGGAGGCAUGCUUCGGUGGCGCGUUAGCGCCAACGUCCUCAACCUCCAAUGCAUCCCACCACAUGAUGCUGCCUGAAGAGCCUUGGUUUUUUG [G51U A66U A111C] as the variant, how does the “polymerase ribozyme fitness (log ratio)” value read?
Its value is -6.21.

With GACCAAUCUGCCCUCAGAGCUCGAGAACAUCUUCGGAUGCAGAGUAGGCAGGCUUCGGUGGCGCGAUAUCGCCAACGUCCUCAACCUCCAAUGCAUCCCACCACAUGAUGAUGCCUGAUGAGCCUUGGUUUUUUG [G45U G69U A119U] as the variant, how does the “polymerase ribozyme fitness (log ratio)” value read?
Its value is -0.819.

With GACCAAUCUGCCCUCAGAGCUCGAGAACAUCUUCGGAUGCAGAGGAGGCAGUCUUCGGUGGCGCGAUAGCGCGAACGUCCUCAACCUCCAAUGCAUCCCACCACAUGAUGAUGCCUGAAGAGCCUUGGUUUUUUG [G52U C73G] as the variant, how does the “polymerase ribozyme fitness (log ratio)” value read?
The value was -1.11.

With GACCAAUCUGCCCUCAGAGCUCGAGAACAUCUUCGGAUGCAGAGGAGGCAGGCUUCGGUGGCGCGAUAGCGCCAACGUCCUCAACCUCAGAUGCAUCCCACCACAUGAUGAUGCCUGAAGAGCCUUGGUUUUUUG [C89A A90G] as the variant, how does the “polymerase ribozyme fitness (log ratio)” value read?
Its value is -1.53.

With GACCAAUCUGCCCUCAGAGCUCGAGAACAUCUUCGGAUGCAGAGGAGGCAGGCUUCGGUAGCGCGAUAGCGCCAACGUUCUCAACCUCCAAUGCAUCCCACCACAUGAUGAUGCCUGAAGAGCCUUGGUUUUUUG [G60A C79U] as the variant, how does the “polymerase ribozyme fitness (log ratio)” value read?
The value was 0.344.

Which “polymerase ribozyme fitness (log ratio)” value does the source give for GACCAAUCUGCCCUUAGAGCUCGAGGACAUCUUCGGAUGCAGAGGAGGCAGGCUUCGGUGGCCCGAUAGCACCAACGUCCUCAACCUCCAAUGCAUCCCACUACAUGAGGAAGCCUGAAGAGCCUUGGAUUUUUG [C15U A26G G63C G71A C102U U109G U112A U129A] here?
Its value is -3.42.

With GACCAAUCUGCCCUCAGAGCUCGAAAACAUCUUCGGAUGCAGAGGAGGCAGGCUUCGGUGGCGCGAUAGCGGCAACGUCCUCAACCUCCAAUGCAUCCCACCACAUGAUGAUGCCUGAAGAGCCUUGGUUUUUUG [G25A C72G] as the variant, how does the “polymerase ribozyme fitness (log ratio)” value read?
The value was -5.55.

With GACCAAUCUGCCCUCAGAGCUCGAGAACAUCUUCGGAUGCAGAGGAGGCAGGCUUCGGUGGCGCGAUAGCGCGAACGUCCUUAACCUCCAAUGCAUCCCACCACAUGAUGAUGCCUGAAGAGCCUUGGUUUUUUG [C73G C82U] as the variant, how does the “polymerase ribozyme fitness (log ratio)” value read?
The value was -0.556.

For GACCAAUAUGCCCUCAGAGCUCGAGAACAUCUUCGGAUGCAGAGGACGCAGGCUUCGGUGGCGCGAUAGCGCCAACGUCCUCAACCUCCAAUGCAUCCCACCACAUGAUGAUGCCUGAAGAGCCUUGGUUUUUUG [C8A G47C], which “polymerase ribozyme fitness (log ratio)” value is on record?
The value was -1.8.

Which “polymerase ribozyme fitness (log ratio)” value does the source give for GACCAAUCUGCCCUCAGAGCUCGAGAACAUCUUCGGAUGCAAAGUAGGCAGGCUUCGGUGGCGCGAUAGCGCCAACGUCCUCAACCUCCAAUGCAUCCCAACACAUGAUGAUGCCUGAAGAGCCUUGGUUUUUUG [G42A G45U C101A] here?
Its value is -4.7.

Which “polymerase ribozyme fitness (log ratio)” value does the source give for GACCAAUCUGCCCUCAGAGCUCGACAACAUCUUCGGAUGCAGAGGAGGCAGGCUUCGGUGGCUCGAUAGCGCCAACGUCCUCAACCUCCAAUGCAUCCAACCACAUGAUGAUGCAUGAAGAGCCUUGGUUUUUUG [G25C G63U C99A C115A] here?
Its value is -6.39.

With GACCAAUCUGCCCUCAGAGCUCGAGAACAUCUUCGGAUGCAGAGGAGGCAGGCUUCGGUGGCGCGAUAGCGCUAACGUCCUCAACCUCCAAUGCAUCCCACCACAUGAUGAUGCCUCAAGAGCCUUGGUUUUUUG [C73U G117C] as the variant, how does the “polymerase ribozyme fitness (log ratio)” value read?
Its value is -2.95.

For GACCAAUCUGCCCUAAGAGCUCGAGAACAUCUUCGGAUGCAGAGGAGGCAGGCUUCGGUGGCGCGAUAGCUCCAACGUCCUCAACCUCCAAUGCAUCCCACCACAUGAUGAUGCCUGAAGAGCCUUGGUUUUUUG [C15A G71U], which “polymerase ribozyme fitness (log ratio)” value is on record?
Its value is -2.58.

For GACCAAUCUGCCCUCAGAGCUCGAGAACAUCUUCGGAUGCAGAGGAGGCAGGCUUCGGUGGCGCGAUAGCGCCAACGUCCUCAACCUCCAAUACAUCCCACCACAUGAUGAUACCUGAAGAGCCUUGGUUUUUUG [G93A G113A], which “polymerase ribozyme fitness (log ratio)” value is on record?
The value was -0.607.
